# From PMC8152229
# Columns and labels:
# [1] = viscosity (falling ball micro viscometer); Tpm alone at 1.0 or 2.0 mg/mL; 30 mM Hepes-Na pH 7.3, 100 mM NaCl, 2 mM DTT; 20 °C; excess viscosity over buffer (1.0412 mPa∙s) as measure of head-to-tail interaction between Tpm dimers; details: other: viscosity (falling ball micro viscometer)
# [2] = molecular target: F-actin from rabbit skeletal muscle, stabilised by phalloidin (rabbit) (UniProt P68135); experiment: co-sedimentation; 10 uM phalloidin-stabilized F-actin mixed with increasing Tpm (0 to 5.5-6 uM; up to almost 40 uM for Tpm1.12); 30 mM Hepes-Na pH 7.3, 200 mM NaCl; 40 min at 25 °C; 100,000 x g for 40 min; SDS-PAGE of pellet and supernatant; K50% = Tpm concentration at which actin is half-saturated
# [3] = molecular target: F-actin from rabbit skeletal muscle, stabilised by phalloidin (rabbit) (UniProt P68135); experiment: temperature dependence of light scattering; 20 uM F-actin stabilized by 20 uM phalloidin and 10 uM Tpm; 30 mM Hepes-Na pH 7.3, 100 mM NaCl, 2 mM DTT; heating 1 °C/min; light scattering at 90 degrees, 350 nm; T_diss = temperature of 50% decrease
# P09493 = experiment: viscosity (falling ball micro viscometer); Tpm alone at 1.0 or 2.0 mg/mL; 30 mM Hepes-Na pH 7.3, 100 mM NaCl, 2 mM DTT; 20 °C; excess viscosity over buffer (1.0412 mPa∙s) as measure of head-to-tail interaction between Tpm dimers; details: other: viscosity (falling ball micro viscometer)
# Tropomyosin isoform Tpm1.12, sequence (chain, as listed by the source): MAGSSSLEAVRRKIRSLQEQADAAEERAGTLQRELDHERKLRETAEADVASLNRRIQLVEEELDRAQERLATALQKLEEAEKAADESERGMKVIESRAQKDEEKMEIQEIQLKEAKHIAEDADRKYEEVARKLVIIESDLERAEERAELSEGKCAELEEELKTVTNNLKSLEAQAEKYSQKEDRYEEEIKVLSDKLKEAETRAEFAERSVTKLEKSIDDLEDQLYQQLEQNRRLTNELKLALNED
# Tropomyosin isoform Tpm1.7 with Ala-Ser N-terminal extension, sequence (chain, as listed by the source): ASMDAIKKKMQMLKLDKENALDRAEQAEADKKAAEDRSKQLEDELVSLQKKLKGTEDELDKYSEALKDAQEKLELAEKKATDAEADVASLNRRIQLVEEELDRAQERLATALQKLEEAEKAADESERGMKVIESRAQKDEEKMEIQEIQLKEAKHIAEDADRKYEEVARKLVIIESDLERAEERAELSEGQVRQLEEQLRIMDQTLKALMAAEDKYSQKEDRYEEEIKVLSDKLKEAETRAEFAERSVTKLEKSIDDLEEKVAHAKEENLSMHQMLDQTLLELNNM
substance,measurement,setting,value
Tropomyosin isoform Tpm1.5 with Ala-Ser N-terminal extension,excess viscosity at 1 mg/mL,[1],0.179 mPa∙s
same,excess viscosity at 2 mg/mL,[1],0.653 mPa∙s
Tropomyosin isoform Tpm1.5 with Ala-Ser N-terminal extension (natural protein),K50%,[2],1.11 µM
same,T diss,[3],48.9 °C
Tropomyosin isoform Tpm1.6 with Ala-Ser N-terminal extension,excess viscosity at 1 mg/mL,[1],0.474 mPa∙s
same,excess viscosity at 2 mg/mL,[1],1.34 mPa∙s
Tropomyosin isoform Tpm1.7 with Ala-Ser N-terminal extension,excess viscosity at 1 mg/mL,P09493,1.03 mPa∙s
same,excess viscosity at 2 mg/mL,P09493,3.58 mPa∙s
Tropomyosin isoform Tpm1.12,excess viscosity at 1 mg/mL,P09493,0.026 mPa∙s
same,excess viscosity at 2 mg/mL,P09493,0.066 mPa∙s
Tropomyosin isoform Tpm1.6 with Ala-Ser N-terminal extension (natural protein),K50%,[2],0.45 µM
same,T diss,[3],41.4 °C
